Test results as given in patent US20240245800A1, “HIGHLY SPECIFIC RABBIT SINGLE -DOMAIN ANTIBODIES FOR DRUG DELIVERY IN IMMUNOTHERAPY APPLICATIONS” (TECHNOPHAGE, INVESTIGAÇÃO E DESENVOLVIMENTO EM …, priority 2021, published 2024).
“Also recorded” adds a separate entry of the source.

How the values were obtained:
CLBL-1 cells = test: Flow cytometry binding of C5 VL sdAb to CLBL-1 cells; type: cell-based, canine; conditions: 3 μM C5, 37° C., different timepoints
Protocol: (§1) FIG. 8. Binding and internalization characterization of C5 VL sdAb. C5 binding and internalization properties against CLBL-1 cells were evaluated by cytometry and immunofluorescence. A) For flow cytometry analysis, 1×10^6 of CLBL-1 cells were incubated with Live/Dead reagents for 30 minutes. Then, 3 μM of C5 were incubated with the cells for different timepoints at 37° C. After, cells were washed, fixed, permeabilized, and incubated for 30 min with anti-HA antibody, washed twice and incubated with anti-rat Alexa Fluor-488. […] B) By contrast, no binding of C5 was detected with Jurkat cells. C) To confirm the binding of C5 to the CLBL-1 verified by flow cytometry, we evaluated its distribution on the cells by immunofluorescence assay. […] Representative microphotographs with C5 (green) and DAPI stained-nuclei (blue) are shown.
To evaluate the binding of the VL C5 to the CLBL-1 cells, a FACS analysis was performed. […]
(§2) The C5 VL sdAb binding and cellular internalization properties towards CLBL-1 cells were studied by cytometry analysis and immunofluorescence. […] Live/dead reagent was used to exclude dead cells and the background noise was also evaluated in the control with the secondary antibody (data not shown). To better characterize the binding of the C5 to the CLBL-1 cells, we further evaluated the internalization of the C5 sdAb on the cells using an immunofluorescence assay. […]

Jurkat cells = test: Flow cytometry binding of C5 VL sdAb to Jurkat cells; type: cell-based, human
Protocol: as §1, §2

Human Topoisomerase I = molecular target: T1, Human Topoisomerase I (Homo sapiens, UniProt P11387); test: DNA Topo I activity assay (Human Topoisomerase I Assay Kit); type: biochemical; conditions: 10 U Topo I, supercoiled DNA, agarose gel
T1 construct: purchased Topogen
T1 sequence (P11387 1-765): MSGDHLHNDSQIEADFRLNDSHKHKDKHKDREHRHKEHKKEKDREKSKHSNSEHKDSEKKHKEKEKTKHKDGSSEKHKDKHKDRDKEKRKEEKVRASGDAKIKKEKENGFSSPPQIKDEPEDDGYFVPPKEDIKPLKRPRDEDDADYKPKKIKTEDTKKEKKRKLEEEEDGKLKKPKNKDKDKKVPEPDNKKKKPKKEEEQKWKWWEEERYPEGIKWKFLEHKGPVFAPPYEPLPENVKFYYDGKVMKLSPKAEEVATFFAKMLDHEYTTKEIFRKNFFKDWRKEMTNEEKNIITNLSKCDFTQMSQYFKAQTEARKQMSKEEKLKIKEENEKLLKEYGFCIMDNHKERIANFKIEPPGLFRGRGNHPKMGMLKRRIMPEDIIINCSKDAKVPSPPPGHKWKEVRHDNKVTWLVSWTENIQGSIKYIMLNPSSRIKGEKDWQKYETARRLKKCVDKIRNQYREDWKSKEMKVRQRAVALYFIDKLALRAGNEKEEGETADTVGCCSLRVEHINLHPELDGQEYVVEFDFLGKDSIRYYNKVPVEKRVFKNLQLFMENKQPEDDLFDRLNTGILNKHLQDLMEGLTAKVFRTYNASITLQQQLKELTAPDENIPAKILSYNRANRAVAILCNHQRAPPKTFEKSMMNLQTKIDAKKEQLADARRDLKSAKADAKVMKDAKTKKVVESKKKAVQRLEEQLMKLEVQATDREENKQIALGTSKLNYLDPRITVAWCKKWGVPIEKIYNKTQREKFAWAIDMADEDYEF
Protocol: FIG. 11—Cytotoxic effects of C5-DAB-SN-38. To determine the effect of C5-DAB-SN-38 on CLBL-1 and Jurkat cells, a cell viability assay was performed using the WST-1 reagent. 6×10^4 cells were seeded and treated with increasing amounts of compound. After 48 h treatment, cell viability was assessed. […] B) On the other hand, ADC had no effect on Jurkat cells, proving the specificity of the ADC. C5 was used as control. Best-fit EC50 values of each formulation were calculated using GraphPad Prism software (version 9.2.0, San Diego, CA, USA) using the log (inhibitor) vs response (variable slope) function. D) Effects of C5-DAB-SN-38 on DNA TopoI activity. To evaluate the effects of C5-DAB-SN-38 on DNA Topo I, we evaluated its activity using the Human Topoisomerase I Assay Kit. After incubation of C5-DAB-SN-38 with 1× reaction buffer and 10 U of Topo I for 1 h at 37° C., the supercoiled DNA was added. To stop the reaction, stop loading buffer was added. DNA TopoI activity was visualized by 1% agarose gel electrophoresis […] with ethidium bromide. Relaxed DNA indicated TopoI activity while supercoiled DNA indicated an inhibition. […] Relaxed DNA and supercoiled DNA were used as positive/negative controls. C5 and SN-38 were also used as controls.
Topo I activity on VL-DAB-SN38 was determined using the Human Topoisomerase I Assay Kit (Topogen, CO, USA) according to the manufacturer's instructions. […]

B1: C5: rabbit derived anti-cNHL VL sdAb clone, SEQ. ID. 3; ^99mTc radiolabelled for biodistribution (antibody, listed as Oryctolagus cuniculus, V domains shown)
VL: ELDLTQTPSPVSASVGGTATINCQASQSVYNNYWWAWYQQRPGHPPKLLIYETSKLASGVPSRFKGSGSGTQFTLTIIDVQCDDAATYVCAGGYGTVIDNAFGGGTELEIL
modifications: 99mTc(CO)3 radiolabel
notes: ID; ^99mTc radiolabelled for biodistribution
CLBL-1 cells
  binding to CLBL-1 cells (flow cytometry): specifically binds; also recorded: demonstrated to bind
CLBL-1 cells; listed as VL C5
  binding to CLBL-1 cells (flow cytometry): shown to bind to the cells, increasing its interaction with time
Jurkat cells
  binding to Jurkat cells (flow cytometry): no binding interaction
Human Topoisomerase I
  effect on DNA Topo I activity: not able to alter enzyme activity
